± gives the uncertainty stated by the source.
B1: Membrane-associated guanylate kinase, WW and PDZ domain-containing protein 1, residues 352 to 401; numbered along this chain, Q96QZ7 (parent)
chain: TEELDSELELPAGWEKIEDPVYGIYYVDHINRKTQYENPVLEAKRKKQLE
B2: Mineralocorticoid receptor, residues 600 to 675; numbered along this chain, P08235 (parent)
chain: SKICLVCGDEASGCHYGVVTCGSCKVFFKRAVEGQHNYLCAGRNDCIIDKIRRKNCPACRLQKCLQAGMNLGARKS

Variants of: B1
Assay: abundance fitness (aPCA) (normalised: wild type 0, dead -1); higher = more abundant; growth selection in yeast, the domain comes from the species named
Details: Homo sapiens

| Variant | abundance fitness |
| --- | --- |
| R45M | -0.159 ± 0.083 |
| R45N | -0.363 ± 0.073 |
| R45P | -0.056 ± 0.059 |
| R45Q | -0.032 ± 0.069 |
| R45S | -0.067 ± 0.05 |
| R45T | 0.048 ± 0.075 |
| R45V | -0.162 ± 0.052 |
| R45W | -0.352 ± 0.048 |
| R45Y | -0.266 ± 0.045 |
| K46A | -0.063 ± 0.058 |
| K46C | -0.103 ± 0.046 |
| K46D | 0.012 ± 0.052 |
| K46E | -0.256 ± 0.072 |
| K46F | -0.27 ± 0.1 |
| K46G | -0.089 ± 0.038 |
| K46H | 0.173 ± 0.1 |
| K46L | -0.133 ± 0.064 |
| K46M | -0.328 ± 0.088 |
| K46N | -0.41 ± 0.11 |
| K46P | -0.044 ± 0.087 |
| K46Q | -0.026 ± 0.064 |
| K46R | -0.094 ± 0.056 |
| K46S | -0.093 ± 0.041 |

| Variant | abundance fitness |
| --- | --- |
| K46T | -0.333 ± 0.11 |
| K46V | -0.065 ± 0.041 |
| K46W | -0.331 ± 0.056 |
| K46Y | -0.169 ± 0.094 |
| K47A | -0.075 ± 0.076 |
| K47C | -0.232 ± 0.085 |
| K47D | -0.154 ± 0.088 |
| K47E | -0.25 ± 0.094 |
| K47F | -0.239 ± 0.14 |
| K47G | -0.169 ± 0.057 |
| K47H | -0.172 ± 0.059 |
| K47L | -0.008 ± 0.053 |
| K47M | -0.102 ± 0.049 |
| K47N | -0.318 ± 0.12 |
| K47P | -0.121 ± 0.08 |
| K47Q | 0.013 ± 0.059 |
| K47R | -0.163 ± 0.043 |
| K47S | 0.016 ± 0.059 |
| K47T | -0.077 ± 0.044 |
| K47W | -0.414 ± 0.072 |
| K47Y | -0.207 ± 0.06 |
| Q48A | -0.045 ± 0.044 |
| Q48C | -0.134 ± 0.061 |

| Variant | abundance fitness |
| --- | --- |
| Q48D | 0.017 ± 0.073 |
| Q48E | 0.262 ± 0.077 |
| Q48F | -0.339 ± 0.13 |
| Q48G | -0.221 ± 0.047 |
| Q48H | -0.1 ± 0.089 |
| Q48I | 0.188 ± 0.092 |
| Q48K | -0.035 ± 0.055 |
| Q48L | -0.279 ± 0.055 |
| Q48M | 0.001 ± 0.042 |
| Q48N | 0.107 ± 0.047 |
| Q48P | -0.528 ± 0.077 |
| Q48R | -0.227 ± 0.052 |
| Q48S | -0.035 ± 0.049 |
| Q48T | -0.17 ± 0.051 |
| Q48V | -0.115 ± 0.048 |
| Q48W | -0.26 ± 0.075 |
| Q48Y | -0.152 ± 0.052 |
| L49A | -0.003 ± 0.046 |
| L49E | 0.132 ± 0.066 |
| L49F | -0.328 ± 0.12 |
| L49H | -0.073 ± 0.11 |
| L49I | -0.232 ± 0.14 |
| L49K | -0.002 ± 0.083 |

| Variant | abundance fitness |
| --- | --- |
| L49M | 0.154 ± 0.065 |
| L49N | -0.222 ± 0.24 |
| L49P | -0.049 ± 0.064 |
| L49T | -0.002 ± 0.05 |
| L49V | -0.138 ± 0.063 |
| L49W | -0.239 ± 0.043 |
| L49Y | -0.048 ± 0.089 |
| E50A | 0.032 ± 0.064 |
| E50C | 0.327 ± 0.43 |
| E50D | 0.006 ± 0.1 |
| E50H | -0.699 ± 0.28 |
| E50I | -0.273 ± 0.33 |
| E50K | -0.264 ± 0.22 |
| E50L | -0.223 ± 0.18 |
| E50Q | -0.438 ± 0.18 |
| E50R | -0.841 ± 0.23 |
| E50S | -0.321 ± 0.11 |
| E50T | -0.174 ± 0.046 |
| E50V | -0.332 ± 0.11 |
| E50W | 0.058 ± 0.38 |

Variants of: B2
Assay: as above
Details: Homo sapiens

| Variant | abundance fitness |
| --- | --- |
| AKICLVCGDEASGCHYGVVTCGSCKVFFKRAVEGQHNYLCAGRNDCIIDKIRRKNCPACRLQKCLQAGMNLGARKS [S1A] | -0.136 ± 0.063 |
| DKICLVCGDEASGCHYGVVTCGSCKVFFKRAVEGQHNYLCAGRNDCIIDKIRRKNCPACRLQKCLQAGMNLGARKS [S1D] | -0.406 ± 0.32 |
| FKICLVCGDEASGCHYGVVTCGSCKVFFKRAVEGQHNYLCAGRNDCIIDKIRRKNCPACRLQKCLQAGMNLGARKS [S1F] | -0.048 ± 0.1 |
| GKICLVCGDEASGCHYGVVTCGSCKVFFKRAVEGQHNYLCAGRNDCIIDKIRRKNCPACRLQKCLQAGMNLGARKS [S1G] | -0.087 ± 0.06 |
| HKICLVCGDEASGCHYGVVTCGSCKVFFKRAVEGQHNYLCAGRNDCIIDKIRRKNCPACRLQKCLQAGMNLGARKS [S1H] | 0.002 ± 0.26 |
| IKICLVCGDEASGCHYGVVTCGSCKVFFKRAVEGQHNYLCAGRNDCIIDKIRRKNCPACRLQKCLQAGMNLGARKS [S1I] | -0.035 ± 0.11 |
| KKICLVCGDEASGCHYGVVTCGSCKVFFKRAVEGQHNYLCAGRNDCIIDKIRRKNCPACRLQKCLQAGMNLGARKS [S1K] | -0.123 ± 0.1 |
| LKICLVCGDEASGCHYGVVTCGSCKVFFKRAVEGQHNYLCAGRNDCIIDKIRRKNCPACRLQKCLQAGMNLGARKS [S1L] | -0.099 ± 0.062 |
| MKICLVCGDEASGCHYGVVTCGSCKVFFKRAVEGQHNYLCAGRNDCIIDKIRRKNCPACRLQKCLQAGMNLGARKS [S1M] | -0.06 ± 0.074 |
| PKICLVCGDEASGCHYGVVTCGSCKVFFKRAVEGQHNYLCAGRNDCIIDKIRRKNCPACRLQKCLQAGMNLGARKS [S1P] | -0.13 ± 0.09 |
| RKICLVCGDEASGCHYGVVTCGSCKVFFKRAVEGQHNYLCAGRNDCIIDKIRRKNCPACRLQKCLQAGMNLGARKS [S1R] | -0.099 ± 0.052 |
| VKICLVCGDEASGCHYGVVTCGSCKVFFKRAVEGQHNYLCAGRNDCIIDKIRRKNCPACRLQKCLQAGMNLGARKS [S1V] | 0.018 ± 0.056 |
| WKICLVCGDEASGCHYGVVTCGSCKVFFKRAVEGQHNYLCAGRNDCIIDKIRRKNCPACRLQKCLQAGMNLGARKS [S1W] | -0.144 ± 0.073 |
| YKICLVCGDEASGCHYGVVTCGSCKVFFKRAVEGQHNYLCAGRNDCIIDKIRRKNCPACRLQKCLQAGMNLGARKS [S1Y] | 0 ± 0.089 |
| SAICLVCGDEASGCHYGVVTCGSCKVFFKRAVEGQHNYLCAGRNDCIIDKIRRKNCPACRLQKCLQAGMNLGARKS [K2A] | -0.066 ± 0.048 |
| SDICLVCGDEASGCHYGVVTCGSCKVFFKRAVEGQHNYLCAGRNDCIIDKIRRKNCPACRLQKCLQAGMNLGARKS [K2D] | -0.062 ± 0.063 |
| SEICLVCGDEASGCHYGVVTCGSCKVFFKRAVEGQHNYLCAGRNDCIIDKIRRKNCPACRLQKCLQAGMNLGARKS [K2E] | -0.072 ± 0.057 |
| SFICLVCGDEASGCHYGVVTCGSCKVFFKRAVEGQHNYLCAGRNDCIIDKIRRKNCPACRLQKCLQAGMNLGARKS [K2F] | -0.267 ± 0.18 |
| SGICLVCGDEASGCHYGVVTCGSCKVFFKRAVEGQHNYLCAGRNDCIIDKIRRKNCPACRLQKCLQAGMNLGARKS [K2G] | -0.163 ± 0.042 |
| SHICLVCGDEASGCHYGVVTCGSCKVFFKRAVEGQHNYLCAGRNDCIIDKIRRKNCPACRLQKCLQAGMNLGARKS [K2H] | -0.109 ± 0.078 |
| SIICLVCGDEASGCHYGVVTCGSCKVFFKRAVEGQHNYLCAGRNDCIIDKIRRKNCPACRLQKCLQAGMNLGARKS [K2I] | -0.041 ± 0.065 |
| SLICLVCGDEASGCHYGVVTCGSCKVFFKRAVEGQHNYLCAGRNDCIIDKIRRKNCPACRLQKCLQAGMNLGARKS [K2L] | -0.099 ± 0.049 |
| SMICLVCGDEASGCHYGVVTCGSCKVFFKRAVEGQHNYLCAGRNDCIIDKIRRKNCPACRLQKCLQAGMNLGARKS [K2M] | -0.075 ± 0.055 |
| SNICLVCGDEASGCHYGVVTCGSCKVFFKRAVEGQHNYLCAGRNDCIIDKIRRKNCPACRLQKCLQAGMNLGARKS [K2N] | 0.002 ± 0.061 |
| SQICLVCGDEASGCHYGVVTCGSCKVFFKRAVEGQHNYLCAGRNDCIIDKIRRKNCPACRLQKCLQAGMNLGARKS [K2Q] | 0.118 ± 0.067 |
| SRICLVCGDEASGCHYGVVTCGSCKVFFKRAVEGQHNYLCAGRNDCIIDKIRRKNCPACRLQKCLQAGMNLGARKS [K2R] | -0.083 ± 0.041 |
| SSICLVCGDEASGCHYGVVTCGSCKVFFKRAVEGQHNYLCAGRNDCIIDKIRRKNCPACRLQKCLQAGMNLGARKS [K2S] | -0.161 ± 0.051 |
| STICLVCGDEASGCHYGVVTCGSCKVFFKRAVEGQHNYLCAGRNDCIIDKIRRKNCPACRLQKCLQAGMNLGARKS [K2T] | -0.049 ± 0.06 |
